Source: patent US5654398, “Compositions and methods for inhibiting replication of human immunodeficiency virus-1” (The Regents of the University of California)

Target: Rev34-50 peptide I (free N- and C-termini) (HIV-1)
Experiment: EMSA; apparent nonspecific Kd with tRNA, 4 C
Conditions: protein: synthetic; tags: synthetic peptide, unmodified termini; label: 32P; stem-loop with internal bulge

In the case of GGCUGGUAUCGGCGCAGCGUCAAUGACGCUGACGGUAGAGGCCAGCC (ssRNA, [10,38]) [RRE IIB C46-G74 mutant], the Kd is reported as 3000 nM.
